Target: green fluorescent protein (GFP), recombinant (Aequorea victoria, UniProt P42212 1-238 = GFP)
Assay: not stated there (SPR or in vitro binding assay)

B1: LaG-41 (VHH)
VHH: DVQLVESGGGLVQAGGSLRLSCAASGPTGAMAWFRQAPGKEREFVGGISGSETDTYYVDSVKGRFTVDRDNVKNTVYLQMNSLKPEDTAVYYCAARRRITLFTSRTDYDFWGRGTQVTV
  Kd: 0.9 nM
